The text below walks through data of PMC10519980, “Characterization and structure-based protein engineering of a regiospecific saponin acetyltransferase from Astragalus membranaceus” (Nature Communications, 2023).

Numbering of substitutions follows the chain as printed. Numbers in names are those of the source.

Substrate in the series: CC(C)(O)[C@@H]1CC[C@](C)([C@H]2[C@@H](O)C[C@@]3(C)[C@@H]4C[C@H](O[C@@H]5O[C@H](CO)[C@@H](O)[C@H](O)[C@H]5O)[C@H]5C(C)(C)[C@@H](O[C@@H]6OC[C@@H](O)[C@H](O)[C@H]6O)CC[C@@]56C[C@@]46CC[C@]23C)O1
Briefly: UHPLC kinetic assay of acetylation. The class given is biochemical, Astragalus propinquus. The following applies: acetyl-CoA as acyl donor.

B1: AmAT7-3 (Astragalus propinquus; A310G) (protein)
chain: MSSLRLVSSSTIQAANDNNDDSSQLIDLTVWDLIGLERESIQQGLLYHHPNQVDTPNQIQHLKHSLSSTLSFFPPFAGRLVITEYEDNTATCFIACNNAGALFVHAVAENTTISDILQPNKYVPPIVNSLFSLNGVKNREGTIQPLLVVQVTELVDGIFIGLTVNHVVADGKSFWLFVNSWAEISRGFQKPSKLPTLERWFLNDTDHPIRFSFSMEEEKKKFQSGQLTTRFFHFTRENIAHLKSKANGEVTLGNTERRISSLQALLAHVWRSVVRCERIDPQEVLYYILLIDARTRLIPPLEDDYFGNAGDAGVVIMKAGELLEGGLGNVAWNMNKVISLNSDEKIKNRYKSWLRTPQLPSMGMHTTFASQLLIIANSPRFNVYGNDFGWGKPLAVRSSAENKRDCKIVLFAGAEEGSIDIEVCLPYEILEALGNDAEFLDNHSIG
notes: full length cloned in pET-28a(+), E. coli BL21(DE3), Ni-NTA; for kinetics and crystals pET28a-TEV plus size exclusion
The term Km denotes the substrate concentration at which the rate is half of its maximum. For B1, where the note is “paper prints 'toward 1a', read as formation of product 1a (C3'-O-acetylation) from 1”, the Km came to 76.7 µM.

B2: AmAT7-3 (Astragalus propinquus; A310W) (protein)
chain: B1 chain with G310W
notes: as for B1
With B2, the Km (paper prints 'toward 1b', read as formation of product 1b (C4'-O-acetylation) from 1) turned out to be 168.3 µM.
